Experimental data as given in patent US20240295570A1, “METHOD FOR IDENTIFYING CANDIDATE THERAPEUTICS FOR ALZHEIMER'S DISEASE” (UNIVERSITY OF SOUTH FLORIDA, priority 2023, published 2024).
Values belong to the molecule of their own block, whether it stands above or below them.

Assays:
BIN1 SH3 domain = target: T1, BIN1 SH3 domain (Homo sapiens, UniProt O00499); assay: Surface plasmon resonance (SPR) binding to immobilised BIN1 SH3 domain; settings: triplicate, ligand BIN1 SH3 domain 50 μg/mL, analyte serial dilution 75-0.6 μM, dissociation time 120 seconds, 25° C., running buffer 1×PBS-P+, read-out: dissociation constant (KD)
T1 construct: 6x His with TEV cleavage site (N, cleaved yes); made in house; host or cells: E. coli BL21 (DE3), pET28a(+)
T1 sequence (O00499 513-593): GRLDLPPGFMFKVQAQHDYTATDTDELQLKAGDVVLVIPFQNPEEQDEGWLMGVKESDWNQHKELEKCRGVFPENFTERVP
Protocol: (§1) Next, the inventors determined the dissociation constant (KD) for the peptide and full-length 0N4R WT Tau by surface plasmon resonance (SPR). The experiment was run in triplicate with BIN1 SH3 domain 50 μg/mL as the ligand, and FL 0N4R WT Tau in serial dilution from 75-0.6 μM as the analyte. Flow rate—30 μL/minute, contact time—30 seconds, dissociation time—120 seconds, temperature—25° C., running buffer—1×PBS-P+. A dissociation constant of 1.136 μM was determined.
Then, the dissociation constants for nine compounds identified through the molecular docking analysis were assessed. […] Therefore, compound #5 is a candidate compound for further testing in Alzheimer's disease. Ligand-BIN1 SH3 domain 50 μg/mL. Analyte—compounds 1-2 (serial dilutions from 500-3.12 μM), #4 & 6-9 (250-3.12 μM) and #5 (dilutions from 100-3.12 μM). Flow rate—30 μL/minute, contact time—30 seconds, dissociation time—300 seconds, temperature—25° C., running buffer—1.05×PBS-P+ with 5% DMSO. Solvent correction for 5% DMSO was calculated and mathematically subtracted from each compound analysis.

full-length 0N4R WT Tau [1] = target: T2, full-length 0N4R WT Tau (UniProt P10636-6 2-383, limits assumed); assay: SPR, steady-state affinity fit (replicate 3 of 3); BIN1 SH3 domain as immobilised ligand, FL 0N4R WT Tau as analyte 0.6-75 µM, 25 °C, PBS-P+
T2 construct: mature; also called FL 0N4R WT Tau
T2 sequence (P10636 other isoform, or with tags, fused parts or gaps limits assumed): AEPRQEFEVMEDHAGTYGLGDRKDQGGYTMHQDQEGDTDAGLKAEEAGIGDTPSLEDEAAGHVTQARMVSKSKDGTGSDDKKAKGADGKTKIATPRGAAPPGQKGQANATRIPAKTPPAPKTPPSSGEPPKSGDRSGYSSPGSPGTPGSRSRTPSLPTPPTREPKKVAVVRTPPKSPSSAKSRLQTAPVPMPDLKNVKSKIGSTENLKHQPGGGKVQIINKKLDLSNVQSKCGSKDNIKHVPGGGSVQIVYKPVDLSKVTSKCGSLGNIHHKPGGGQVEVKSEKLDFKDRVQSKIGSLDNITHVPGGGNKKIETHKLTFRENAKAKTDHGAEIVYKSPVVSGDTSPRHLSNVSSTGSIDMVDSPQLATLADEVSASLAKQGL
Protocol: as §1, with “buffer—1×PBS-P+.” for “buffer—1×PBS-P+. A dissociation constant of 1.136 μM was determined.”

full-length 0N4R WT Tau [2] = target: T2, full-length 0N4R WT Tau; assay: SPR, steady-state affinity fit (replicate 1 of 3); BIN1 SH3 domain as immobilised ligand, FL 0N4R WT Tau as analyte 0.6-75 µM, 25 °C, PBS-P+
Protocol: as §1, with “buffer—1×PBS-P+.” for “buffer—1×PBS-P+. A dissociation constant of 1.136 μM was determined.”

full-length 0N4R WT Tau [3] = target: T2, full-length 0N4R WT Tau; assay: SPR, steady-state affinity fit (replicate 2 of 3); BIN1 SH3 domain as immobilised ligand, FL 0N4R WT Tau as analyte 0.6-75 µM, 25 °C, PBS-P+
Protocol: as §1, with “buffer—1×PBS-P+.” for “buffer—1×PBS-P+. A dissociation constant of 1.136 μM was determined.”

full-length 0N4R WT Tau [4] = target: T2, full-length 0N4R WT Tau; assay: SPR, run in triplicate; BIN1 SH3 domain (50 µg/mL) as immobilised ligand, FL 0N4R WT Tau in serial dilution from 75-0.6 µM as analyte; 25° C., 1×PBS-P+
Protocol: as §1, with “buffer—1×PBS-P+.” for “buffer—1×PBS-P+. A dissociation constant of 1.136 μM was determined.”

Kd (BIN1 SH3 domain): 1140 nM
Molecule: FL 0N4R WT Tau: full-length 0N4R wild-type Tau protein used as analyte in SPR

Kd (full-length 0N4R WT Tau [1]): 1080 nM | Kd (full-length 0N4R WT Tau [2]): 1030 nM | Kd (full-length 0N4R WT Tau [3]): 1300 nM | Kd (full-length 0N4R WT Tau [4]): 1140 nM
B1: human BIN1 SH3 domain (untagged) (other)
chain: T1 sequence (O00499 513-593)
notes: also called native BIN1 SH3 domain; the peptide
